Source: patent US20180355059A1
Values joined by “and” are separate entries in the source; they are usually repeats but may differ in a detail not shown here. Equal entries are not always repeated. One block for each substance: values may come before it.

What was measured:
[1] = target: recombinant human PCSK9-His protein (Immunogen A) (human) (UniProt Q8NBP7); experiment: SPR, Biacore T200; antibody captured by anti-human Fc
[2] = target: recombinant human PCSK9-His protein (Immunogen A) (human) (UniProt Q8NBP7); experiment: ELISA of PCSK9 binding to LDLR ECD; antibody 40 nM
[3] = target: recombinant cyno monkey PCSK9 protein (cyno monkey); experiment: ELISA; antibody 0 nM
recombinant cyno monkey PCSK9 protein (cyno monkey), sequence (A8T666 31-692 limits assumed): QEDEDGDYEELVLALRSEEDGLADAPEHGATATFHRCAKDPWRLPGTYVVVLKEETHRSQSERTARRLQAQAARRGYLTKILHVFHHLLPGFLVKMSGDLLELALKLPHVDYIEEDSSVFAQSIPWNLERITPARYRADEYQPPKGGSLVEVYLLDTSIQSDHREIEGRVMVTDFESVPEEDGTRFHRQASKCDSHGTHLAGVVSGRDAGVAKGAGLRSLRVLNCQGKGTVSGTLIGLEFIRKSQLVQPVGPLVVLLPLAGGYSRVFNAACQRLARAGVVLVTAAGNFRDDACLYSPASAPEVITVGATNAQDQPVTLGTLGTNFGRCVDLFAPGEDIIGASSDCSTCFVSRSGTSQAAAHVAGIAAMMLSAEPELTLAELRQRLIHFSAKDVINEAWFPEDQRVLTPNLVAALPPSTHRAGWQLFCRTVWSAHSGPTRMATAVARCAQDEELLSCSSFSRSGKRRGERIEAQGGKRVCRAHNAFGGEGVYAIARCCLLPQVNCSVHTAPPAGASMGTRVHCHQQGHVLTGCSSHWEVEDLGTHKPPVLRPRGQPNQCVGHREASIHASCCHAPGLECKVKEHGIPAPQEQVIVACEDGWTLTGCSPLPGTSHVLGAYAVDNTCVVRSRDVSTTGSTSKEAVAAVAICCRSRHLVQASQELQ

[4] = target: recombinant cyno monkey PCSK9 protein (cyno monkey); experiment: ELISA; antibody 0.00067 nM
[5] = target: recombinant cyno monkey PCSK9 protein (cyno monkey); experiment: ELISA; antibody 0.000067 nM
[6] = target: recombinant human PCSK9-His protein (Immunogen A) (human) (UniProt Q8NBP7); experiment: ELISA; antibody 66.67 nM
[7] = target: recombinant cyno monkey PCSK9 protein (cyno monkey); experiment: ELISA; antibody 66.67 nM
[8] = target: recombinant cyno monkey PCSK9 protein (cyno monkey); experiment: ELISA; antibody 0.67 nM
[9] = target: recombinant cyno monkey PCSK9 protein (cyno monkey); experiment: ELISA; antibody 6.67 nM
[10] = target: recombinant human PCSK9^D374Y protein (human) (UniProt Q8NBP7); experiment: ELISA of PCSK9^D374Y binding to LDLR ECD; antibody 0.06 nM
[11] = target: recombinant human PCSK9-His protein (Immunogen A) (human) (UniProt Q8NBP7); experiment: ELISA of PCSK9 binding to LDLR ECD; antibody 8 nM
[12] = target: recombinant human PCSK9-His protein (Immunogen A) (human) (UniProt Q8NBP7); experiment: ELISA of PCSK9 binding to LDLR ECD; antibody 0 nM
[13] = target: recombinant human PCSK9-His protein (Immunogen A) (human) (UniProt Q8NBP7); experiment: ELISA of PCSK9 binding to LDLR ECD; antibody 200 nM
[14] = target: recombinant cyno monkey PCSK9 protein (cyno monkey); experiment: ELISA; antibody 0 nM; remark: listed apart in the source
[15] = target: recombinant human PCSK9 protein, His-tagged (Immunogen A, hPCSK9-His) (human) (UniProt Q8NBP7); experiment: blocking ELISA, biotin-hPCSK9-His on coated LDLR ECD-His; antibody 200 nM
[16] = target: recombinant cyno monkey PCSK9 protein (cyno monkey); experiment: ELISA, biotin-cyno PCSK9 on streptavidin plate; antibody 0.000067 nM
[17] = target: recombinant cyno monkey PCSK9 protein (cyno monkey); experiment: ELISA, biotin-cyno PCSK9 on streptavidin plate; antibody 0.00067 nM
[18] = target: recombinant human PCSK9 protein, His-tagged (Immunogen A, hPCSK9-His) (human) (UniProt Q8NBP7); experiment: ELISA, biotin-hPCSK9-His on streptavidin plate; antibody 0.67 nM
[19] = target: recombinant human PCSK9 protein, His-tagged (Immunogen A, hPCSK9-His) (human) (UniProt Q8NBP7); experiment: ELISA, biotin-hPCSK9-His on streptavidin plate; antibody 0.00067 nM
[20] = target: recombinant human PCSK9 protein, His-tagged (Immunogen A, hPCSK9-His) (human) (UniProt Q8NBP7); experiment: ELISA, biotin-hPCSK9-His on streptavidin plate; antibody 0 nM (blank)
[21] = target: recombinant human PCSK9 protein, His-tagged (Immunogen A, hPCSK9-His) (human) (UniProt Q8NBP7); experiment: blocking ELISA, biotin-hPCSK9-His on coated LDLR ECD-His; antibody 40 nM
[22] = target: recombinant human PCSK9 protein, His-tagged (Immunogen A, hPCSK9-His) (human) (UniProt Q8NBP7); experiment: ELISA, biotin-hPCSK9-His on streptavidin plate; antibody 6.67 nM
[23] = target: recombinant human PCSK9 protein, His-tagged (Immunogen A, hPCSK9-His) (human) (UniProt Q8NBP7); experiment: ELISA, biotin-hPCSK9-His on streptavidin plate; antibody 0.067 nM
[24] = target: recombinant cyno monkey PCSK9 protein (cyno monkey); experiment: ELISA, biotin-cyno PCSK9 on streptavidin plate; antibody 6.67 nM
[25] = target: recombinant cyno monkey PCSK9 protein (cyno monkey); experiment: ELISA, biotin-cyno PCSK9 on streptavidin plate; antibody 0.0067 nM
[26] = target: recombinant cyno monkey PCSK9 protein (cyno monkey); experiment: ELISA, biotin-cyno PCSK9 on streptavidin plate; antibody 0.67 nM
[27] = target: recombinant human PCSK9 protein, His-tagged (Immunogen A, hPCSK9-His) (human) (UniProt Q8NBP7); experiment: ELISA, biotin-hPCSK9-His on streptavidin plate; antibody 0.000067 nM
[28] = target: recombinant cyno monkey PCSK9 protein (cyno monkey); experiment: ELISA, biotin-cyno PCSK9 on streptavidin plate; antibody 66.67 nM
[29] = target: recombinant cyno monkey PCSK9 protein (cyno monkey); experiment: ELISA, biotin-cyno PCSK9 on streptavidin plate; antibody 0 nM (blank)
[30] = target: recombinant human PCSK9 protein, His-tagged (Immunogen A, hPCSK9-His) (human) (UniProt Q8NBP7); experiment: ELISA, biotin-hPCSK9-His on streptavidin plate; antibody 66.67 nM
[31] = target: recombinant cyno monkey PCSK9 protein (cyno monkey); experiment: ELISA, biotin-cyno PCSK9 on streptavidin plate; antibody 0.067 nM
[32] = target: recombinant human PCSK9 protein, His-tagged (Immunogen A, hPCSK9-His) (human) (UniProt Q8NBP7); experiment: ELISA, biotin-hPCSK9-His on streptavidin plate; antibody 0.0067 nM
[33] = target: recombinant human PCSK9 protein, His-tagged (Immunogen A, hPCSK9-His) (human) (UniProt Q8NBP7); experiment: blocking ELISA, biotin-hPCSK9-His on coated LDLR ECD-His; antibody 1.6 nM
[34] = target: recombinant human PCSK9 protein, His-tagged (Immunogen A, hPCSK9-His) (human) (UniProt Q8NBP7); experiment: blocking ELISA, biotin-hPCSK9-His on coated LDLR ECD-His; antibody 8 nM
[35] = target: recombinant human PCSK9 protein, His-tagged (Immunogen A, hPCSK9-His) (human) (UniProt Q8NBP7); experiment: blocking ELISA, biotin-hPCSK9-His on coated LDLR ECD-His; antibody 0.01 nM
[36] = target: recombinant human PCSK9 protein, His-tagged (Immunogen A, hPCSK9-His) (human) (UniProt Q8NBP7); experiment: blocking ELISA, biotin-hPCSK9-His on coated LDLR ECD-His; antibody 0.32 nM
[37] = target: recombinant human PCSK9 protein, His-tagged (Immunogen A, hPCSK9-His) (human) (UniProt Q8NBP7); experiment: blocking ELISA, biotin-hPCSK9-His on coated LDLR ECD-His; antibody 0.06 nM

- Kd [1]: 0.394 nM
- koff [1]: 0.000318 s⁻¹
- kon [1]: 806000 M⁻¹ s⁻¹
Substance: Alirocumab, Regeneron (antibody)

- Kd [1]: < 0.122 nM
- koff [1]: 0.000822 s⁻¹
- kon [1]: < 100000 M⁻¹ s⁻¹
Substance: Evolocumab, Amgen (antibody)

- OD450 nm [2]: 1.43 OD450 nm
- OD450 nm [3]: 0.06 OD450 nm
- OD450 nm [4]: 0.07 OD450 nm
- OD450 nm [5]: 0.07 OD450 nm
- OD450 nm [6]: 0.97 OD450 nm
- OD450 nm [7]: 0.81 OD450 nm
- OD450 nm [8]: 0.08 OD450 nm
- OD450 nm [9]: 0.15 OD450 nm
- OD450 nm [10]: 1.57 OD450 nm
- OD450 nm [11]: 1.76 OD450 nm
- OD450 nm [12]: 2.4 OD450 nm
- OD450 nm [13]: 1.41 OD450 nm
- OD450 nm [14]: 0.07 OD450 nm
Substance: IgG control (human IgG) (antibody)

- OD450 nm (PCSK9 bound to LDLR) [15]: 1.22 OD450 nm and 1.14 OD450 nm
- OD450 nm [16]: 0.19 OD450 nm
- OD450 nm [17]: 0.16 OD450 nm
- OD450 nm [18]: 0.09 OD450 nm
- OD450 nm [19]: 0.18 OD450 nm and 0.09 OD450 nm
- OD450 nm [20]: 0.1 OD450 nm
- OD450 nm (PCSK9 bound to LDLR) [21]: 1.01 OD450 nm and 1.11 OD450 nm
- OD450 nm [22]: 0.1 OD450 nm
- OD450 nm [23]: 0.12 OD450 nm and 0.09 OD450 nm
- OD450 nm [24]: 0.17 OD450 nm
- OD450 nm [25]: 0.12 OD450 nm
- OD450 nm [26]: 0.12 OD450 nm
- OD450 nm [27]: 0.11 OD450 nm
- OD450 nm [28]: 0.18 OD450 nm
- OD450 nm [29]: 0.15 OD450 nm
- OD450 nm [30]: 0.11 OD450 nm
- OD450 nm [31]: 0.12 OD450 nm
- OD450 nm [32]: 0.18 OD450 nm and 0.1 OD450 nm
- OD450 nm (PCSK9 bound to LDLR) [33]: 1.09 OD450 nm and 1.12 OD450 nm
- OD450 nm (PCSK9 bound to LDLR) [34]: 1.02 OD450 nm and 1.07 OD450 nm
- OD450 nm (PCSK9 bound to LDLR) [35]: 1.22 OD450 nm and 1.18 OD450 nm
- OD450 nm (PCSK9 bound to LDLR) [36]: 1.2 OD450 nm and 1.13 OD450 nm
- OD450 nm (PCSK9 bound to LDLR) [37]: 1.26 OD450 nm and 1.2 OD450 nm
Substance: IgG control (rat IgG) (antibody)
